Among the data in paper PMC10919400 are percent of parent (% of wild-type) values, retold here.

For one experiment, the target named is human plasminogen. Put plainly: whole-bacteria Plg binding; bound Plg converted to Pln with tPA, Pln activity measured with chromogenic substrate (VALY). The settings on record: +Plg/+tPA: S. suis is incubated with Plg and tPA; parent: est. 100; read off a plot.
For the next experiment, the target named is human plasmin (UniProt P00747). Put plainly: whole-bacteria Pln binding; bound Pln activity measured with chromogenic substrate (VALY). The note with it: +Pln: S. suis is incubated with Pln; parent: est. 100; read off a plot.
UniProt P00747, sequence (P00747 581-810, chain 1 of 2): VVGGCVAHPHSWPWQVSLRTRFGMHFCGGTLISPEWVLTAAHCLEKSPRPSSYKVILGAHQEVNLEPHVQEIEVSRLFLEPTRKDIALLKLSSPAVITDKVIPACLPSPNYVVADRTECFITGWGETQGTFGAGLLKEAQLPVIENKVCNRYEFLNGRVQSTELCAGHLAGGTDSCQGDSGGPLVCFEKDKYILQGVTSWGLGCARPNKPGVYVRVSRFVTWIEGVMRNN
UniProt P00747, sequence (P00747 581-810, chain 2 of 2): as the sequence (P00747 581-810, chain 1 of 2) above

Regarding “Streptococcus suis P1/7 enolase, wild type, on intact bacteria (from UniProt A4W2T1) K252A; E253G; K255A”, the figures for the percent of parent (% of wild-type) with human plasminogen and in the experiment with human plasmin were 55 and 63, respectively.
For “Streptococcus suis P1/7 enolase, wild type, on intact bacteria (from UniProt A4W2T1) K252A; K261A”, the percent of parent (% of wild-type) with human plasminogen came to 57; with human plasmin, 50.
With “Streptococcus suis P1/7 enolase, wild type, on intact bacteria (from UniProt A4W2T1) K261A”, the percent of parent (% of wild-type) in the experiment with human plasminogen turned out to be 58; with human plasmin, 56.
For “Streptococcus suis P1/7 enolase, wild type, on intact bacteria (from UniProt A4W2T1) K434A; K435A”, in that order: 55 and 46.
